{"source": "the RNAGym collection of RNA variant scans (doi:10.1073/pnas.2313332121)", "parents": {"B1": {"name": "TPR t1 (parent)", "chain": "GACCAAUCUGCCCUCAGAGCUCGAGAACAUCUUCGGAUGCAGAGGAGGCAGGCUUCGGUGGCGCGAUAGCGCCAACGUCCUCAACCUCCAAUGCAUCCCACCACAUGAUGAUGCCUGAAGAGCCUUGGUUUUUUG"}}}
{"variants_of": "B1", "assay": "polymerase ribozyme fitness, log enrichment relative to wild type (log ratio); higher = more active; in vitro selection for triplet polymerase activity", "procedure,_shortened": "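To select mutant libraries of each subunit of a heterodimeric triplet polymerase ribozyme, built by PCR and transcribed, each was annealed with a biotinylated primer, partner subunit and triplets, then incubated frozen at −7 °C. Extended constructs were gel-excised, captured on streptavidin beads and amplified by RT-PCR, in one round carried out in triplicate. Illumina sequencing of input and output libraries kept genotypes with ≥10 input reads and ≥1 read per output. Fitness is the base-2 logarithm of genotype enrichment relative to wild-type enrichment, from inverse-variance-weighted replicate averages.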"}
{"variant": "GACCAAUCUGCCCACAGAGCUCGAGAACAUCUUCGGAUGCAGAGGAGGCAGGGUUCGGUGGCGCGAUAGUGGCAACGUCCUCAACCUCCAAUGCAUCCCACCACAUGAUGAUGCCUGAAGAGCCUUGGUUUUUUG", "note": "[U14A C53G C70U C72G]", "polymerase ribozyme fitness (log ratio)": -4.88}
{"variant": "GACCAAUCUGCCCACAGAGCUCGAGAACAUCUUCGAAUGCAGAGGAGGCAGGCUUUGGUGGCGCGAUAGCGCCAACGUCCUCAACCUCCAAUGCAUCCCACCACAUGAUGAUGCCUGAAGAGCCUUGGUUUUUUG", "note": "[U14A G36A C56U]", "polymerase ribozyme fitness (log ratio)": -3.35}
{"variant": "GACCAAUCUGCCCACAGAGCUCGAGAACAUCUUCGGAUGCAGAGGAGACAGGCUUUGGUGGCGCGAUAGCGCCAACGUCCUCAACCUCCAAUGCAUCCCACCACAUGAUGAUGCCUUAAGAGCCUUGGUUUUUUG", "note": "[U14A G48A C56U G117U]", "polymerase ribozyme fitness (log ratio)": -5.41}
{"variant": "GACCAAUCUGCCCACAGAGCUCGAGAACAUCUUCGGAUGCAGAGGAGGCAGGCUUCGGUGGCGCGAUAGCGUCAACGUCCUCAACCUCCAAUUCAUCCCACCACAUGAUGAUGCCUGAAGAGCCUUGGUUUUAUU", "note": "[U14A C72U G93U U133A G135U]", "polymerase ribozyme fitness (log ratio)": -4.17}
{"variant": "GACCAAUCUGCCCACAGAGCUCGAGAACAUCUUCGGAUGCAGAGGAGGCAGGCUUCGGUGGCGCGAUAGCGCCAACGUCCUCAAACUCGAAUGCAUCCCACCACAUGAUGAUGCCUGAAGAGUCUUGGUUUUUUG", "note": "[U14A C85A C89G C123U]", "polymerase ribozyme fitness (log ratio)": -3.2}
{"variant": "GACCAAUCUGCCCACAGAGCUCGAGAACAUCUUCGGAUGCAGAGGAGGCAGGCUUGGGUGGCGCGAUAGCGCCAACGUCCUCAACCUCCAAUGCAUCCCACCACAUGAUGAUGCCUGAAGAGCCUUGGUUUUUUG", "note": "[U14A C56G]", "polymerase ribozyme fitness (log ratio)": -3.51}
{"variant": "GACCAAUCUGCCCACAGAGCUCGAGAACAUCUUCGGAUGCAGAGAAGGCAGGCUUCGGUGGCGCGAUAGCGCCAACGUCCUCAACCUCCAAUGCAUCCCACCACAUGAUUACGCCUGAAGAGCCUUGGUUUUUUG", "note": "[U14A G45A G110U U112C]", "polymerase ribozyme fitness (log ratio)": -4.2}
{"variant": "GACCAAUCUGCCCACAGAGCUCGAGAACAUCUUCGGAUGCAGAGGAGGCAGGCUUCGGUGGCGCGAUAGUGCCAACGUCCUCAACCUCCAAUGCAUCCCACCAUAUGAUGAUGCCUGAAGAGCCUUGGUUUUUUG", "note": "[U14A C70U C104U]", "polymerase ribozyme fitness (log ratio)": -2.52}
{"variant": "GACCAAUCUGCCCACAGAGCUCGAGAACAUCUUCGGAUGCAGAGGAGGCAGGCUUCGGUGGCGCGAUAGCGCCAACGUUCUCAACCUCCAAUGCAUCCCACCACAUGAUGAUGCCUUAAGAGCCUUGGUUUUUUG", "note": "[U14A C79U G117U]", "polymerase ribozyme fitness (log ratio)": -5.29}
{"variant": "GACCAAUCUGCCCACAGAGCUCGAGAACAUCUUCGGAUGCAGAGGAGGCAGGCUUCGGUGGCGCGAUAGCGCCGACGUCCUCAACCUCCAAUGCAUCCCACCACAUGAUGAUGCCUUAAGAGCCUUGGUUUUUUG", "note": "[U14A A74G G117U]", "polymerase ribozyme fitness (log ratio)": -4.7}
{"variant": "GACCAAUCUGCCCACAGAGCUAGAGAACAUCUUCGGAUGCAGAGGAGGCAGGCUUCGGUGGCGCGAUAGCGCCAACGUCCUCAACCUCCAAUGCAUCCCAACACAUGAUGAUGCCGGAAGAGCUUUGGUUUUUUG", "note": "[U14A C22A C101A U116G C124U]", "polymerase ribozyme fitness (log ratio)": -5.17}
{"variant": "GACCAAUCUGCCCACAGAGCUCGAGAACAUCUUCGGAUGCAGAGGAGGCAGGCUUAGGUGGUGCGAUAGCGCCAACGUCCUCAACCUCCAAUGCAUCCCACCACAUGAUGAUGCCUGAAGAGCCUUGGUUUUUUG", "note": "[U14A C56A C62U]", "polymerase ribozyme fitness (log ratio)": -2.93}
{"variant": "GACCAAUCUGCCCACAGAGCUCGAGAACAUCUUCGGAUGCAGAGGAGGCAGACUUCGGUGGCGCGAUAGCGCCAACGUCCUCAACCUCCAAUGCAUCCCACCACAUGAUGAUGCCUGAAGAGCCUUGGUUUUUUG", "note": "[U14A G52A]", "polymerase ribozyme fitness (log ratio)": -3.3}
{"variant": "GACCAAUCUGCCCACAGAGCUCGAGAACAUCUUCGGAUGCAGAGGAGGUAGUCUUCGGUGGCGCGAUAGCGCCAAAGUCCUCAACCUCCAAUGCAUCCCACCACAUGAUGAUGCCUGAAGAGCCUUGGUUUUUUG", "note": "[U14A C49U G52U C76A]", "polymerase ribozyme fitness (log ratio)": -4.51}
{"variant": "GACCAAUCUGCCCACAGAGCUCGAGAACAUCUUCGUAUGGAGAGGAGGCAGGCUUAGGUGGCGCGAUAGCGCCAACGUCCUCAGCCUCCAAUGCAUACCACCACAUGAUGAUGCCUGAAGAGCCUUGGUUUUUUG", "note": "[U14A G36U C40G C56A A84G C97A]", "polymerase ribozyme fitness (log ratio)": -7.86}
{"variant": "GACCAAUCUGCCCACAGAGCUCGAGAACAUCUUCGGAUGCAGAGGAGGCAGGCUUCGGUGGCGCGAUAGCGCCAACGUCCUCAACCUCCAAUGCAUCCCACCACAUGAUGAUGCUUGAAGAGCCUUGGUUUUUUG", "note": "[U14A C115U]", "polymerase ribozyme fitness (log ratio)": -3.52}
{"variant": "GACCAAUCUGCCCACAGAGCUCGAGAACAUCUUCGGAUGCAGAGGAGGCAGGCUUCGGUGGCGCGAUAGGGCCAACGUCCUCAACCUCCAAUGCAUCCCACCACAUGAUGAUGCCUGAAGAGCCAUGGUUUUUUG", "note": "[U14A C70G U125A]", "polymerase ribozyme fitness (log ratio)": -4.4}
{"variant": "GACCAAUCUGCCCACAGAGCUCGAGAACAUCUUCGGAUGCAGAGGAGGCAGGCUUCGGUGGCGCGAUAGAGCCAACGUCCUCAACCUCCAAUGCAUCCCACCACAUGAUGAUGCCUGAAGAGCCUUGGUUUUUUG", "note": "[U14A C70A]", "polymerase ribozyme fitness (log ratio)": -4.09}
{"variant": "GACCAAUCUGCCCACAGAGCUCGAGAACAUCUUCGGAUGCAGAGGAGGUAGUCUUCGGUGGCGCGAUAGCGCCAACGUCCUCAACCUCCAAUGCAUCCCACCACAUGAUGAUGCCUGAAGUGCCAUGGUUUUUUG", "note": "[U14A C49U G52U A121U U125A]", "polymerase ribozyme fitness (log ratio)": -1.22}
{"variant": "GACCAAUCUGCCCACAGAGCUCGAGAACAUCUUCGGAUGCAGAGGAGGCAGGCUUCGGUGGCGCGAUAGGGCCAACCUCCUCAACCUCCAAUGCAUCCCACCACAUGAUGACGCCUGAGGAGCCUUGGUUGUUUG", "note": "[U14A C70G G77C U112C A119G U131G]", "polymerase ribozyme fitness (log ratio)": -3.76}
{"variant": "GACCAAUCUGCCCACAGAGCUCGAGAACAUUUUCGGAUGCAGAGGAGGCAGGCUUCGGUGGCGCGAUAGCGCCAACGUCCUCAACCCCCAAUGCAUCCCACCACAUGAUGAGGCCUGAAGAGCCUUGGUUUUUUG", "note": "[U14A C31U U87C U112G]", "polymerase ribozyme fitness (log ratio)": -6.24}
